Reference: patent publication US20160106861A1, “AXL ANTIBODY-DRUG CONJUGATE AND ITS USE FOR THE TREATMENT OF CANCER” (PIERRE FABRE MEDICAMENT, priority 2013, published 2016)

Tests used:
[1] = target: T1, rhDtk-Fc (R and D Systems, cat N° 859-DK) (human, UniProt Q06418 41-428, limits assumed); test: ELISA on coated protein
T1 construct: Bought protein; also called Tyro3; not shown: Fc of human IgG
T1 sequence (looked up): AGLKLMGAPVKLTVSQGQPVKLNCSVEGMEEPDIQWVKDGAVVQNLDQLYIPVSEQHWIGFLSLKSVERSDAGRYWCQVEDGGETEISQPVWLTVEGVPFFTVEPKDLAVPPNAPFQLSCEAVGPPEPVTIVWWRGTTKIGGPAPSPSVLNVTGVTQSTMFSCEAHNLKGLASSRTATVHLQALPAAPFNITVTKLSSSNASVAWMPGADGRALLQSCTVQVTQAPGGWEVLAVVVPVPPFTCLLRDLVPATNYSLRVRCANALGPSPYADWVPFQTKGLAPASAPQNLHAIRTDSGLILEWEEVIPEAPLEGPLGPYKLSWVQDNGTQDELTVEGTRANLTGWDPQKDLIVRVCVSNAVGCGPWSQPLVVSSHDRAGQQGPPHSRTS

[2] = target: T2, rhMer-Fc (R and D Systems, cat N° 891-MR) (human, UniProt Q12866 26-499, limits assumed); test: ELISA on coated protein
T2 construct: Bought protein; not shown: Fc of human IgG
T2 sequence (looked up): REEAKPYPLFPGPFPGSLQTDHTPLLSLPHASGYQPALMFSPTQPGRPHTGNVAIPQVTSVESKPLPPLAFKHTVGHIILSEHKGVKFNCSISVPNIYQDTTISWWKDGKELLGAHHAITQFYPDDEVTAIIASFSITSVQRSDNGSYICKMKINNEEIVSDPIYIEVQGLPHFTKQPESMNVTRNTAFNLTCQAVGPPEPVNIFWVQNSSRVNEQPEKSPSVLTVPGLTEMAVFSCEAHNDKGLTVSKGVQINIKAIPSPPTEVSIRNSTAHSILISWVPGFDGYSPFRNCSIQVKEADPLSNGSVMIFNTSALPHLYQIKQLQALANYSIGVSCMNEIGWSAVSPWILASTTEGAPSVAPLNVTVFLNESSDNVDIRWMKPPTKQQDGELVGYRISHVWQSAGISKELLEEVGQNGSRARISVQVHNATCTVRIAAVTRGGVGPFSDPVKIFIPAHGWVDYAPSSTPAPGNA

[3] = target: T3, rhDtk-Fc (Homo sapiens, UniProt Q06418); test: ELISA binding on immobilized rhDtk-Fc protein; settings: starting concentration 5 μg/ml, 1/2 serial dilutions
T3 construct: purchased R and D Systems 859-DK
T3 sequence (Q06418 with tags, fused parts or gaps limits assumed): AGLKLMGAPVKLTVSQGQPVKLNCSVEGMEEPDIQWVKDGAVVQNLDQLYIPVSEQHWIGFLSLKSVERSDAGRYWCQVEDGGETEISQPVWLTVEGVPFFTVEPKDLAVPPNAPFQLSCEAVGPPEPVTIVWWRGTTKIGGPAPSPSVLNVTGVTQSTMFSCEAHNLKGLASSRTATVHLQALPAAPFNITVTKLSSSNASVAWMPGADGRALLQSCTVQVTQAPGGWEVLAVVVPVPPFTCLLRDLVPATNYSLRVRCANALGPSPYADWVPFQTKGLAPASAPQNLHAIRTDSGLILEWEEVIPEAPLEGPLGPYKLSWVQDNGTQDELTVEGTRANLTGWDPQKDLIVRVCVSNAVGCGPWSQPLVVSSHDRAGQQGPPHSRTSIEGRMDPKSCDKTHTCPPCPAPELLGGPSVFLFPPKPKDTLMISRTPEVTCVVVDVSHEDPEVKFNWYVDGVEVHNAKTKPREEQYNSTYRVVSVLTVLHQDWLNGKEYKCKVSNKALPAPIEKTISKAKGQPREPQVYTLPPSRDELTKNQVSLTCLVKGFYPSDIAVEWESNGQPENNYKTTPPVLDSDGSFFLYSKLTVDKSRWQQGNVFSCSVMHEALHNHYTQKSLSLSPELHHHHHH
Description: Briefly, the recombinant human Axl-Fc (R and D systems, cat N° 154AL/CF), rhDtk (R and D Systems, cat N° 859-DK) or rhMer-Fc (R and D Systems, cat N° 891-MR) proteins were coated overnight at 4° C. to Immulon II 96-well plates and, after a 1 h blocking step with a 0.5% gelatine solution, 1613F12 was added for an additional 1 h at 37° C. at starting concentration of 5 μg/ml (3.33 10^−8M). Then ½ serial dilutions were done over 12 columns. Plates were washed and a goat anti-mouse (Jackson) specific IgG-HRP was added for 1 h at 37° C. Reaction development was performed using the TMB substrate solution. The isotype control antibody mIgG1 and the commercial anti-Axl Mab 154 antibody were also used in parallel. Coating controls were performed in presence of a goat anti-human IgG Fc polyclonal serum labelled with HRP (Jackson, ref 109-035-098) and/or in presence of a HRP-coupled anti-Histidine antibody (R and D Systems, ref: MAB050H).

[4] = system: SN12C cells; test: Internalization study by fluorescent immunocytochemistry (confocal microscopy); format: cell-based, human; settings: 10 μg/ml, 1 h and 2 h at 37° C.
Description: Briefly, SN12C tumor cell line was cultured in RMPI1640 with 1% L-glutamine and 10% of FCS for 3 days before experiment. Cells were then detached using trypsin and plated in 6-multiwell plate containing coverslide in RPMI1640 with 1% L-glutamine and 5% FCS. The next day, 1613F12 was added at 10 μg/ml. Cells treated with an irrelevant antibody were also included. The cells were then incubated for 1 h and 2 h at 37° C., 5% CO2. For T 0 h, cells were incubated for 30 minutes at 4° C. to determine antibody binding on cell surface. Cells were washed with PBS and fixed with paraformaldehyde for 15 minutes. Cells were rinsed and incubated with a goat anti-mouse IgG Alexa 488 antibody for 60 minutes at 4° C. to identify remaining antibody on the cell surface. To follow antibody penetration into the cells, cells were fixed and permeabilized with saponin. A goat anti-mouse IgG Alexa 488 (Invitrogen) was used to stained both the membrane and the intracellular antibody. […] Cells were washed three times and nuclei were stained using Draq5. After staining, cells were mounted in Prolong Gold mounting medium (Invitrogen) and analyzed by using a Zeiss LSM 510 confocal microscope.

[5] = target: T4, human Axl receptor on the surface of human tumor cells (human, UniProt P30530 26-894); test: flow cytometry on human tumor cells
T4 construct: Endogenous Axl on human tumor cell lines (SN12C, Calu-1, MDA-MB435S, MDA-MB231, NCI-H125, Panc1); also called cell-surface Axl; membrane Axl receptor
T4 sequence: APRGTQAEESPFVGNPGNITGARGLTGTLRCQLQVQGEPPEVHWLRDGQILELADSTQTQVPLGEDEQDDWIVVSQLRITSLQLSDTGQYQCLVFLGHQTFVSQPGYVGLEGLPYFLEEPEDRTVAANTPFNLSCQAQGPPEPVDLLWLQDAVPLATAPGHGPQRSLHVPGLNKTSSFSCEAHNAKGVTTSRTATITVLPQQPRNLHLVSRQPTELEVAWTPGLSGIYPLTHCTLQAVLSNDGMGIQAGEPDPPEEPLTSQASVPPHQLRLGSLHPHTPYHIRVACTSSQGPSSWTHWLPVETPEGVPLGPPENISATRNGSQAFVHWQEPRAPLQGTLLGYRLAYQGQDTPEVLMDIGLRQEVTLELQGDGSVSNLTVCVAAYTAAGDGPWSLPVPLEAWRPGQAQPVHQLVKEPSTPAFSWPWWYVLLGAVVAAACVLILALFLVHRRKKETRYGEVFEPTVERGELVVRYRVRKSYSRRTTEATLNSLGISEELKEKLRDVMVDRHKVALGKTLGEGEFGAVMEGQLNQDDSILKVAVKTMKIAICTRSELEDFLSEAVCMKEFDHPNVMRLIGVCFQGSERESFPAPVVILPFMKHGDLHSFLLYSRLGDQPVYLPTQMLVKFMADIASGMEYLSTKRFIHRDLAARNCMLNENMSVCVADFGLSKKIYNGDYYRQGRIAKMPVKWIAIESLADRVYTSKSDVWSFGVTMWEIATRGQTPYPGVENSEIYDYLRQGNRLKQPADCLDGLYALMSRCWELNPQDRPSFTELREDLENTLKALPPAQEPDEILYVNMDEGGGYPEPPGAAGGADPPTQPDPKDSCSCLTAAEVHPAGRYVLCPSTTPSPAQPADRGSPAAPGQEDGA

binding result [1]: no binding
binding result [2]: no binding
binding on rhDtk (ELISA) [3]: does not bind
binding result [5]: binds
B1: m1613F12 (murine 1613F12, hybridoma CNCM I-4505) (antibody, V domains shown)
VH: EVHLQQSGAELVKPGASVKLSCTASGFNIRDTYIHWVKQRPEQGLEWIGRLDPANGHTKYGPNFQGRATMTSDTSSNTAYLQLSSLTSEDTAVYYCARGAYYYGSSGLFYFDYWGQGTTLSVSS
VL: DVQITQSPSYLATSPGETITINCRASKSISKYLAWYQEKPGKTNKLLIYSGSTLQSGVPSRFSGSGSGTDFTLTISSLEPEDFAMYFCQQHHEYPLTFGAGTELELK
notes: Murine monoclonal antibody; also called Axl antibody
internalization (membrane and intracellular staining) [4]: internalization of 1613F12 into SN12C cells
